Reference: publication PMC7367176, “Grønning Alexander Gulliver Bjørnholt Department of Biochemistry and Molecular Biology, University of Southern Denmark, 5230 Odense M, Denmark”

Legend:
hnRNP A1 [1] = target: T1, hnRNP A1 (UniProt P09651 1-372); experiment: SPR imaging; 1:2 biphasic fit, primary Kd; SPRi (IBIS MX-96): 10 mM HEPES/KOH pH 7.9, 150 mM KCl, 10 mM MgCl2, 0.075% Tween-80; 6.25-400 nM protein over immobilized biotinylated RNA; 20 mg/ml BSA block; details: protein: commercial; label: 3' biotin
SRSF1 [2] = target: T2, SRSF1 (UniProt Q07955 1-248); experiment: SPR imaging; SPRi (IBIS MX-96): 10 mM HEPES/KOH pH 7.9, 150 mM KCl, 10 mM MgCl2, 0.075% Tween-80; 6.25-400 nM protein over immobilized biotinylated RNA; 20 mg/ml BSA block; details: protein: recombinant; label: 3' biotin
hnRNP A1 [3] = target: T1, hnRNP A1; experiment: SPR imaging; 1:2 biphasic fit, primary Kd; fitted maximum higher than SMN1 (1260 vs 885); SPRi (IBIS MX-96): 10 mM HEPES/KOH pH 7.9, 150 mM KCl, 10 mM MgCl2, 0.075% Tween-80; 6.25-400 nM protein over immobilized biotinylated RNA; 20 mg/ml BSA block; details: protein: commercial; label: 3' biotin
hnRNP A1 [4] = target: T1, hnRNP A1; experiment: SPR imaging; 1:2 biphasic fit, primary Kd; fitted maximum higher than WT (60.5 vs 49.6); SPRi (IBIS MX-96): 10 mM HEPES/KOH pH 7.9, 150 mM KCl, 10 mM MgCl2, 0.075% Tween-80; 6.25-400 nM protein over immobilized biotinylated RNA; 20 mg/ml BSA block; details: protein: commercial; label: 3' biotin
hnRNP A1 [5] = target: T1, hnRNP A1; experiment: SPR imaging; 1:2 biphasic fit, primary Kd; low Rmax 58.75; SPRi (IBIS MX-96): 10 mM HEPES/KOH pH 7.9, 150 mM KCl, 10 mM MgCl2, 0.075% Tween-80; 6.25-400 nM protein over immobilized biotinylated RNA; 20 mg/ml BSA block; details: protein: commercial; label: 3' biotin
SRSF1 [6] = target: T2, SRSF1; experiment: SPR imaging; Kd NA, Rmax 0, maximum 0; SPRi (IBIS MX-96): 10 mM HEPES/KOH pH 7.9, 150 mM KCl, 10 mM MgCl2, 0.075% Tween-80; 6.25-400 nM protein over immobilized biotinylated RNA; 20 mg/ml BSA block; details: protein: recombinant; label: 3' biotin
hnRNP A1 [7] = target: T1, hnRNP A1; experiment: SPR imaging; 1:2 biphasic fit, primary Kd; text: increased binding vs WT (maximum 718 vs 131); SPRi (IBIS MX-96): 10 mM HEPES/KOH pH 7.9, 150 mM KCl, 10 mM MgCl2, 0.075% Tween-80; 6.25-400 nM protein over immobilized biotinylated RNA; 20 mg/ml BSA block; details: protein: commercial; label: 3' biotin
hnRNP A1 [8] = target: T1, hnRNP A1; experiment: SPR imaging; 1:2 biphasic fit, primary Kd; low Rmax 68.35; SPRi (IBIS MX-96): 10 mM HEPES/KOH pH 7.9, 150 mM KCl, 10 mM MgCl2, 0.075% Tween-80; 6.25-400 nM protein over immobilized biotinylated RNA; 20 mg/ml BSA block; details: protein: commercial; label: 3' biotin
TDP-43 = TDP-43 (UniProt Q13148 1-414); experiment: SPR imaging; pronounced increase vs wt; SPRi (IBIS MX-96): 10 mM HEPES/KOH pH 7.9, 150 mM KCl, 10 mM MgCl2, 0.075% Tween-80; 6.25-400 nM protein over immobilized biotinylated RNA; 20 mg/ml BSA block; details: protein: commercial; label: 3' biotin
Sequence of TDP-43 (Q13148 whole entry): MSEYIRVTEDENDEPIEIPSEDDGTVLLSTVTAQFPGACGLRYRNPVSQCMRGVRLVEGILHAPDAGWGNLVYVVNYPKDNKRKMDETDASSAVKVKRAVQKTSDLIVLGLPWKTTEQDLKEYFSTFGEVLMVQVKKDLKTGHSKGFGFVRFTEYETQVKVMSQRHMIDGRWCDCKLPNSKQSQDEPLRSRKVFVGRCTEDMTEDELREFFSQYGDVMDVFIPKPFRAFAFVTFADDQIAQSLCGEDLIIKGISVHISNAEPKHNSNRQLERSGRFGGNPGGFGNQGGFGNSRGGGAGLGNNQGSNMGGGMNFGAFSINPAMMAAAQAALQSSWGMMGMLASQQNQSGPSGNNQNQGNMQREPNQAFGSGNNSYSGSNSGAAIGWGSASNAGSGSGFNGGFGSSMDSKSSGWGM

T1 sequence (P09651 whole entry): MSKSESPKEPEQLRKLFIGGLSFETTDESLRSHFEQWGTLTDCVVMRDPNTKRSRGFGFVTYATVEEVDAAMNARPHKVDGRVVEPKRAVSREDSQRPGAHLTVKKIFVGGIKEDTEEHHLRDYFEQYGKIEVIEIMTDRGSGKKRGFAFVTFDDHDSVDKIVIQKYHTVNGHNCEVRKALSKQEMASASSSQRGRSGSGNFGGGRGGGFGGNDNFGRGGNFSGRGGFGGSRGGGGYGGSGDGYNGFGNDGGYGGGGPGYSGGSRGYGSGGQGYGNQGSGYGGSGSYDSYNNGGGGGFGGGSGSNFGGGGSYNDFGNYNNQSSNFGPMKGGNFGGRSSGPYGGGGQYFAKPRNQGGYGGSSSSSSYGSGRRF
T2 sequence (Q07955 whole entry): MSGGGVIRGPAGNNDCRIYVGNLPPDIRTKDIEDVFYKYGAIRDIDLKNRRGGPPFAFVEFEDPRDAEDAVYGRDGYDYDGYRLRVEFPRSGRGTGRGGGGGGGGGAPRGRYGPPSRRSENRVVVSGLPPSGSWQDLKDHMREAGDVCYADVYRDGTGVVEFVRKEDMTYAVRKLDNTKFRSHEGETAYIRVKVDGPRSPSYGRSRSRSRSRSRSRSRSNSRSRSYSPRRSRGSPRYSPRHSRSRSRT

## GGGAGAUGGAAUCAA (ssRNA) [ATP7AEX20 WT]
hnRNP A1 [1]
  Kd: 886 nM
SRSF1 [2]
  Kd: 913 nM

## AGGGUUUUAGACAAA (ssRNA) [SMN2E7T]
hnRNP A1 [3]
  Kd: 1040 nM
SRSF1 [2]
  Kd: 249000 nM

## UGACCUCAAAACAGC (ssRNA) [ATMEX44 MUT]
SRSF1 [2]
  Kd: 10500 nM
hnRNP A1 [4]
  Kd: 211000 nM

## CAUUCUUCGACUAGC (ssRNA) [MLH1EX17 WT]
hnRNP A1 [5]
  Kd: 32 nM
SRSF1 [6]
  binding result: no binding

## GGGAGAUAGAAUCAA (ssRNA) [ATP7AEX20 MUT]
hnRNP A1 [7]
  Kd: 989 nM
SRSF1 [2]
  Kd: 5090 nM

## UCCCAGUUAGAGGCG (ssRNA) [PTENEX6 MUT]
hnRNP A1 [1]
  Kd: 1450 nM
SRSF1 [2]
  Kd: 161000 nM

## UCCCAGUCAGAGGCG (ssRNA) [PTENEX6 WT]
hnRNP A1 [1]
  Kd: 1160 nM
SRSF1 [2]
  Kd: 5800 nM

## CAUUCUUUGACUAGC (ssRNA) [MLH1EX17 MUT]
hnRNP A1 [8]
  Kd: 118 nM
SRSF1 [6]
  binding result: no binding

## UGAUGUGUGUGAGUGUGUGUAAC (ssRNA) [ACADM exon 6 5'ss +7A>G 23 nt]
TDP-43
  binding result: binds

## UGACCUCGAAACAGC (ssRNA) [ATMEX44 WT]
hnRNP A1 [1]
  Kd: 3890 nM
SRSF1 [2]
  Kd: 60900 nM

## AUUUUUGGAAGAGUG (ssRNA) [NF1EX30 WT]
hnRNP A1 [1]
  Kd: 632 nM
SRSF1 [2]
  Kd: 168 nM

## AUUUUUGUAAGAGUG (ssRNA) [NF1EX30 MUT]
hnRNP A1 [1]
  Kd: 1080 nM
SRSF1 [2]
  Kd: 248000 nM

## AGGGUUUCAGACAAA (ssRNA) [SMN1E7C]
hnRNP A1 [1]
  Kd: 733 nM
SRSF1 [2]
  Kd: 302 nM
